Patent US20180155451A1 (published 2018)

T1: FcγRIIb (human, UniProt P31994 43-217)
T1 construct: extracellular domain; also called FcgRIIb; 2b; not shown: His tag at the C terminus
T1 sequence (looked up): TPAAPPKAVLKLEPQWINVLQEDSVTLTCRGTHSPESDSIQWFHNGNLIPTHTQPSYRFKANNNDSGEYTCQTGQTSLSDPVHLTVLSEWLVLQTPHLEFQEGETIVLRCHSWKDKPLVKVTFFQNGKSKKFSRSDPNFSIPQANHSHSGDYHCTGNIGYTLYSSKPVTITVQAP

B1: GpH7-A5/GpH7-B3 variant D265_12R/GpL16-k0 (antibody, human IgG1, kappa)
heavy 1: not shown
heavy 2: not shown
light: DIVMTQSPLSLPVTPGEPASISCQASESLVHSNRNTYLHWYLQKPGQSPQLLIYKVSNRFSGVPDRFSGSGSGTDFTLKISRVEAEDVGVYYCSQNTHVPPTFGQGTKVEIERTVAAPSVFIFPPSDEQLKSGTASVVCLLNNFYPREAKVQWKVDNALQSGNSQESVTEQDSKDSTYSLSSTLTLSKADYEKHKVYACEVTHQGLSSPVTKSFNRGEC
notes: He Ab: mutation only in the GpH7-B3 H chain; EU numbering; also called He Ab
B2: GpH7-A5/GpH7-B3 variant D265_13S/GpL16-k0 (antibody, human IgG1, kappa)
heavy 1: not shown
heavy 2: not shown
light: DIVMTQSPLSLPVTPGEPASISCQASESLVHSNRNTYLHWYLQKPGQSPQLLIYKVSNRFSGVPDRFSGSGSGTDFTLKISRVEAEDVGVYYCSQNTHVPPTFGQGTKVEIERTVAAPSVFIFPPSDEQLKSGTASVVCLLNNFYPREAKVQWKVDNALQSGNSQESVTEQDSKDSTYSLSSTLTLSKADYEKHKVYACEVTHQGLSSPVTKSFNRGEC
notes: as for B1
B3: GpH7-A5/GpH7-B3 variant D265_14T/GpL16-k0 (antibody, human IgG1, kappa)
heavy 1: not shown
heavy 2: not shown
light: DIVMTQSPLSLPVTPGEPASISCQASESLVHSNRNTYLHWYLQKPGQSPQLLIYKVSNRFSGVPDRFSGSGSGTDFTLKISRVEAEDVGVYYCSQNTHVPPTFGQGTKVEIERTVAAPSVFIFPPSDEQLKSGTASVVCLLNNFYPREAKVQWKVDNALQSGNSQESVTEQDSKDSTYSLSSTLTLSKADYEKHKVYACEVTHQGLSSPVTKSFNRGEC
notes: as for B1
B4: GpH7-A5/GpH7-B3 variant D265_15Y/GpL16-k0 (antibody, human IgG1, kappa)
heavy 1: not shown
heavy 2: not shown
light: DIVMTQSPLSLPVTPGEPASISCQASESLVHSNRNTYLHWYLQKPGQSPQLLIYKVSNRFSGVPDRFSGSGSGTDFTLKISRVEAEDVGVYYCSQNTHVPPTFGQGTKVEIERTVAAPSVFIFPPSDEQLKSGTASVVCLLNNFYPREAKVQWKVDNALQSGNSQESVTEQDSKDSTYSLSSTLTLSKADYEKHKVYACEVTHQGLSSPVTKSFNRGEC
notes: as for B1
B5: GpH7-A5/GpH7-B3 variant D265_16H/GpL16-k0 (antibody, human IgG1, kappa)
heavy 1: not shown
heavy 2: not shown
light: DIVMTQSPLSLPVTPGEPASISCQASESLVHSNRNTYLHWYLQKPGQSPQLLIYKVSNRFSGVPDRFSGSGSGTDFTLKISRVEAEDVGVYYCSQNTHVPPTFGQGTKVEIERTVAAPSVFIFPPSDEQLKSGTASVVCLLNNFYPREAKVQWKVDNALQSGNSQESVTEQDSKDSTYSLSSTLTLSKADYEKHKVYACEVTHQGLSSPVTKSFNRGEC
notes: as for B1
B6: GpH7-A5/GpH7-B3 variant D265_18N/GpL16-k0 (antibody, human IgG1, kappa)
heavy 1: not shown
heavy 2: not shown
light: DIVMTQSPLSLPVTPGEPASISCQASESLVHSNRNTYLHWYLQKPGQSPQLLIYKVSNRFSGVPDRFSGSGSGTDFTLKISRVEAEDVGVYYCSQNTHVPPTFGQGTKVEIERTVAAPSVFIFPPSDEQLKSGTASVVCLLNNFYPREAKVQWKVDNALQSGNSQESVTEQDSKDSTYSLSSTLTLSKADYEKHKVYACEVTHQGLSSPVTKSFNRGEC
notes: as for B1
B7: GpH7-A5/GpH7-B3 variant D265_19Q/GpL16-k0 (antibody, human IgG1, kappa)
heavy 1: not shown
heavy 2: not shown
light: DIVMTQSPLSLPVTPGEPASISCQASESLVHSNRNTYLHWYLQKPGQSPQLLIYKVSNRFSGVPDRFSGSGSGTDFTLKISRVEAEDVGVYYCSQNTHVPPTFGQGTKVEIERTVAAPSVFIFPPSDEQLKSGTASVVCLLNNFYPREAKVQWKVDNALQSGNSQESVTEQDSKDSTYSLSSTLTLSKADYEKHKVYACEVTHQGLSSPVTKSFNRGEC
notes: as for B1
B8: GpH7-A5/GpH7-B3 variant D265_20W/GpL16-k0 (antibody, human IgG1, kappa)
heavy 1: not shown
heavy 2: not shown
light: DIVMTQSPLSLPVTPGEPASISCQASESLVHSNRNTYLHWYLQKPGQSPQLLIYKVSNRFSGVPDRFSGSGSGTDFTLKISRVEAEDVGVYYCSQNTHVPPTFGQGTKVEIERTVAAPSVFIFPPSDEQLKSGTASVVCLLNNFYPREAKVQWKVDNALQSGNSQESVTEQDSKDSTYSLSSTLTLSKADYEKHKVYACEVTHQGLSSPVTKSFNRGEC
notes: as for B1
B9: GpH7-A5/GpH7-B3 variant H268_06M/GpL16-k0 (antibody, human IgG1, kappa)
heavy 1: not shown
heavy 2: not shown
light: DIVMTQSPLSLPVTPGEPASISCQASESLVHSNRNTYLHWYLQKPGQSPQLLIYKVSNRFSGVPDRFSGSGSGTDFTLKISRVEAEDVGVYYCSQNTHVPPTFGQGTKVEIERTVAAPSVFIFPPSDEQLKSGTASVVCLLNNFYPREAKVQWKVDNALQSGNSQESVTEQDSKDSTYSLSSTLTLSKADYEKHKVYACEVTHQGLSSPVTKSFNRGEC
notes: as for B1
B10: GpH7-A5/GpH7-B3 variant S239_20W/GpL16-k0 (antibody, human IgG1, kappa)
heavy 1: not shown
heavy 2: not shown
light: DIVMTQSPLSLPVTPGEPASISCQASESLVHSNRNTYLHWYLQKPGQSPQLLIYKVSNRFSGVPDRFSGSGSGTDFTLKISRVEAEDVGVYYCSQNTHVPPTFGQGTKVEIERTVAAPSVFIFPPSDEQLKSGTASVVCLLNNFYPREAKVQWKVDNALQSGNSQESVTEQDSKDSTYSLSSTLTLSKADYEKHKVYACEVTHQGLSSPVTKSFNRGEC
notes: as for B1

Assays:
[1] = biological target: T1, FcγRIIb; experiment: SPR (Biacore), captured antibody, soluble FcγR; relative to GpH7-A5/GpH7-B3/GpL16-k0
[2] = biological target: T2, FcγRIa (human, UniProt P12314 16-292); experiment: as above
T2 construct: extracellular domain; also called FcgRI; 1a; not shown: His tag at the C terminus

[3] = biological target: T2, FcγRIa; experiment: SPR; He/Con_1a divided by He/Con_2b (FcγRIIb as reference)

T2 sequence (P12314 16-292): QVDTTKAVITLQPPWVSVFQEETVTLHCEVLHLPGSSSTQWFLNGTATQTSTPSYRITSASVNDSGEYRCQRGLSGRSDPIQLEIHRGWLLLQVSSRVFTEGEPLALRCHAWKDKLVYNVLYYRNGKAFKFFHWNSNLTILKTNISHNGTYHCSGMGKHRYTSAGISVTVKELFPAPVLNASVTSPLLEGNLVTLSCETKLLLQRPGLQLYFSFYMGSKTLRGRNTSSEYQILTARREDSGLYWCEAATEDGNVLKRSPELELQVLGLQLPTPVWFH

Row | Binder | He/Con_2b [1] | He/Con_1a [2] | Ia/IIb He_1a/2b [3] [ratio]
1 | B1 | 15 relative, HeCon Ab = 100 | 44.3 relative, HeCon Ab = 100 | 2.96
2 | B2 | 11.3 relative, HeCon Ab = 100 | 68.7 relative, HeCon Ab = 100 | 6.07
3 | B3 | 16 relative, HeCon Ab = 100 | 78.5 relative, HeCon Ab = 100 | 4.9
4 | B4 | 0.6 relative, HeCon Ab = 100 | 44.3 relative, HeCon Ab = 100 | 73.5
5 | B5 | 38.3 relative, HeCon Ab = 100 | 85.4 relative, HeCon Ab = 100 | 2.23
6 | B6 | 6.1 relative, HeCon Ab = 100 | 27.7 relative, HeCon Ab = 100 | 4.52
7 | B7 | 33.4 relative, HeCon Ab = 100 | 88.8 relative, HeCon Ab = 100 | 2.66
8 | B8 | 1.1 relative, HeCon Ab = 100 | 51.5 relative, HeCon Ab = 100 | 45.6
9 | B9 | 65.7 relative, HeCon Ab = 100 | 105 relative, HeCon Ab = 100 | 1.59
10 | B10 | 45.1 relative, HeCon Ab = 100 | 92.7 relative, HeCon Ab = 100 | 2.06
